Assay results reported in patent publication US12202907B2, “Nucleic acids encoding and methods of producing proteins comprising antibody chains” (Innate Pharma, priority 2018, dated 2025).
Residue numbers refer to the chain shown, from its start.

What was measured:
[1] = Stability in reference formulation (storage, freeze thaw); type: physicochemical; conditions: about 7 mg/mL, pH 6.0 histidine/sucrose/NaCl/PS80, +5° C. and +40° C., up to 1 month
Procedure: (§1) Antibodies mAb1-24 and prior art anti-CD39 antibody BY40, all produced as human IgG1 isotypes with L234A/L235E/G237A/A330S/P331S substitutions were tested for stability in the following reference formulation at a concentration of approximatively 7 mg/mL: pH 6.0; histidine buffer (10 mM); sucrose (200 mM); NaCl (50 mM); Polysorbate 80 (PS80) (0.2 g/L). The stability of the formulations was monitored in two storage conditions (at +5° C.±3° C. and at +40±3° C. For each study, 3 time points were performed: T0, T15D (15 days) and T1M (1 month). A freeze thaw (F/T) and a thermal shift stability assay (TSSA) were conducted for the format comparison. To perform F/T cycles, the samples were frozen at least 2 hours at −20° C. and thawed at least 1 hour at room temperature, the F/T cycle is repeated three times and samples are tested 24 h after the last Freeze/Thaw cycle. At each time point, the following tests were performed: • Particulate Matter (MFI) • Visual Inspection (Appearance) • Impurities (SE-HPLC) • Turbidity (400 nm) • Protein Concentration (280 nm) (performed with Nanodrop, Thermo Fisher Scientific Inc.)

[2] = Aggregation temperature (thermal shift stability assay); type: physicochemical; conditions: human IgG1 with L234A/L235E/G237A/A330S/P331S
Procedure: as §1

[3] = target: T1, human Ramos lymphoma cells (CD39) (Homo sapiens, UniProt P49961); experiment: Antibody titration on Ramos cells by flow cytometry; type: binding; conditions: comparison
T1 construct: cells that endogenously express CD39 at their surface; host or cells: Ramos
T1 sequence (P49961 1-510): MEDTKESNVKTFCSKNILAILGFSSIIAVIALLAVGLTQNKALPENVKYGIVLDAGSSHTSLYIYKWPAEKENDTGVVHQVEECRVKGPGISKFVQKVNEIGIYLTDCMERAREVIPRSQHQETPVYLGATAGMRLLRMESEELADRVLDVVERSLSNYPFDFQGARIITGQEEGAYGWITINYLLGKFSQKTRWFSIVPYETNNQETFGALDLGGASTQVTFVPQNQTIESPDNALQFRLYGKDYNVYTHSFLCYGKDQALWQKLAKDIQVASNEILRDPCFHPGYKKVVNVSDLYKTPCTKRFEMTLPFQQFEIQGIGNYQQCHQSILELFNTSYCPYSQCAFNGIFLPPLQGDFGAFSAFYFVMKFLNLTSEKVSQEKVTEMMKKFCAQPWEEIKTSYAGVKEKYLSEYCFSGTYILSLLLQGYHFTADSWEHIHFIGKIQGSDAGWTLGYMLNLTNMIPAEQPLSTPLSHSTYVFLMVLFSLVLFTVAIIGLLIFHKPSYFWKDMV
Procedure: Antibody I-394 was tested in two repeated experiments for binding to CHO cells expressing human CD39, CHO cells expressing cynomolgus (Macaca fascicularis) CD39, CHO cells expressing murine CD39, and human Ramos lymphoma cells (ATCC™, reference CRL-1596). Cells were incubated with various concentration of unlabeled anti-CD39 antibody from 30 μg/ml to 5×10^−4 μg/ml, for 30 minutes at 4° C. After washes, cells were incubated with Goat anti-mouse H+L labeled secondary antibody for 30 min at 4° C.

[4] = target: T2, CD39 expressed by Ramos human lymphoma cells (Homo sapiens, UniProt P49961); experiment: Inhibition of the enzymatic activity of cellular CD39 in Ramos cells; type: cell-based; conditions: Ramos cells
T2 construct: cells that endogenously express CD39 at their surface; host or cells: Ramos
T2 sequence (P49961 1-510): T1 sequence (P49961 1-510)
Procedure: The inhibition of the CD39 enzymatic activity in CD39-expressing cells by antibodies was evaluated using Cell Titer GIo™ (Promega, reference G7571) that allows assessment of ATP hydrolysis through use of a reagent that generates a luminescent signal proportional to the amount of ATP present. The assay was thus designed to permit assessment of the inhibition of ATP hydrolyzed by CD39 in the cell culture supernatant. Briefly, 5×10^4 Ramos human lymphoma cells, 5×10^3 human CD39−, cynomolgus CD39—and mouse CD39− expressing CHO cells, were incubated 1 hour at 37° C. with anti-CD39 antibodies from 30 μg/ml to 5×10^−4 μg/ml. Cells were then incubated with 20 μM ATP for 1 additional hour at 37° C. Plates were centrifuged for 2 min at 400 g and 50 μl cell supernatant are transferred in a luminescence microplate (white wells). 50 μl CellTiter-Glo™ Reagent (CTG) was added to the supernatant and emitted light was quantified after a 5 min incubation in the dark using a Enspire™ luminometer. Anti-CD39 antibody efficacy was determined by comparing emitted light in presence of antibody with ATP alone (maximal light emission) and ATP together with cells (minimal light emission).

[5] = target: T3, soluble recombinant human CD39 protein (Homo sapiens, UniProt P49961); experiment: Inhibition of the enzymatic activity of soluble CD39 (Cell Titer Glo, cell-free); type: biochemical; conditions: humanized variants
T3 construct: made in house; host or cells: CHO cells
T3 sequence (P49961 with tags, fused parts or gaps): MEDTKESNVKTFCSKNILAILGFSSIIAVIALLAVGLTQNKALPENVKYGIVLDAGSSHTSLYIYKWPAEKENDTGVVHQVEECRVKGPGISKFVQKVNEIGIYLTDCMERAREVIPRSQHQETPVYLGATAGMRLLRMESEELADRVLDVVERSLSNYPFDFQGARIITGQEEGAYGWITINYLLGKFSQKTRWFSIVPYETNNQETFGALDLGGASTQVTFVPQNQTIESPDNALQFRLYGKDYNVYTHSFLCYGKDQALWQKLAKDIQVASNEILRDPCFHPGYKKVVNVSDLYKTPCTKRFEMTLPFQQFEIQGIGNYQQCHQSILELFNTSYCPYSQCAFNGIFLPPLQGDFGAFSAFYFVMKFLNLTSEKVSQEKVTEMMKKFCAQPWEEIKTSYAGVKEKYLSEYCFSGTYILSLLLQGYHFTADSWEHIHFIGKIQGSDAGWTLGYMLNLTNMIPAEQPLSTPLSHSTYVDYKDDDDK
Procedure: The inhibition by antibodies of the enzymatic activity of soluble CD39 protein produced was evaluated using Cell Titer GIo™ (Promega, reference G7571) that allows assessment of ATP hydrolysis through use of a reagent that generates a luminescent signal proportional to the amount of ATP present. In this way, inhibition of the soluble-CD39-meidated ATP hydrolysis can be assessed. Briefly, dose ranges of anti-CD39 antibodies from 100 μg/ml to […] were incubated with 400 ng/ml of soluble recombinant human CD39 protein having the amino acid sequence described in the Methods section (SEQ ID NO: 44), for 1 h at 37° C. 20 μM ATP was added to the plates for 30 additional minutes at 37° C. before addition of CTG (Cell Titer Glo) reagent. Emitted light was quantified using an Enspire™ luminometer after a short incubation period of 5 min in the dark. Anti-CD39 antibody efficacy was determined by comparing emitted light in presence of antibody with ATP alone (maximal light emission) and ATP together with soluble CD39 protein (minimal light emission).

B1: mAb8: humanized I-394 variant, VH H2 (SEQ ID NO: 29), VL L1 (SEQ ID NO: 36) (antibody, V domains shown)
VH: QVQLVQSGAEVKKPGASVKVSCKASGYTFTDYNMHWVRQAPGQRLEWMGYIVPLNGGSTFNQKFKGRATITVDTSASTAYMELSSLRSEDTAVYYCARGGTRFAYWGQGTLVTVSS
VL: DIVMTQSPDSLAVSLGERATINCRASESVDNFGVSFMYWFQQKPGQPPKLLIYGASNQGSGVPDRFSGSGSGTDFTLTISSLQAEDVAVYYCQQTKEVPYTFGGGTKVEIK
- physicochemical stability [1]: good physicochemical stability
- Aggregation temperature (TAgg) [2]: ~70 °C
- binding to Ramos cells relative to I-394 [3]: best binding

B2: mAb23: humanized I-394 variant, VH H4* (SEQ ID NO: 34), VL L1 (SEQ ID NO: 36) (antibody, V domains shown)
VH: B1 VH with M48I, N61S, K65Q, S77R
VL: B1 VL
- potency at blocking CD39 enzymatic activity relative to other antibodies [4]: slightly lower potency than mAb20 and mAb21

B3: mAb9: humanized I-394 variant, VH H2 (SEQ ID NO: 29), VL L1* (SEQ ID NO: 37) (antibody, V domains shown)
VH: B1 VH
VL: B1 VL with R24K
- physicochemical stability [1]: good physicochemical stability
- Aggregation temperature (TAgg) [2]: ~70 °C
- binding to Ramos cells relative to I-394 [3]: best binding

B4: mAb14: humanized I-394 variant, VH H3 (SEQ ID NO: 30), VL L1 (SEQ ID NO: 36) (antibody, V domains shown)
VH: B1 VH with M48I
VL: B1 VL
- potency for inhibition of soluble CD39 relative to parental I-394 [5]: comparable to the parental I-394 antibody

B5: mAb15: humanized I-394 variant, VH H3 (SEQ ID NO: 30), VL L1* (SEQ ID NO: 37) (antibody, V domains shown)
VH: B1 VH with M48I
VL: B1 VL with R24K
- potency for inhibition of soluble CD39 relative to parental I-394 [5]: comparable to the parental I-394 antibody

B6: mAb24: humanized I-394 variant, VH H4* (SEQ ID NO: 34), VL L1* (SEQ ID NO: 37) (antibody, V domains shown)
VH: B1 VH with M48I, N61S, K65Q, S77R
VL: B1 VL with R24K
- potency at blocking CD39 enzymatic activity relative to other antibodies [4]: slightly lower potency than mAb20 and mAb21
